Test [1] deals with Galr2. The test is described as follows: β-Arrestin1/2-dependent Erk1/2 phosphorylation (Gαq/11-knockout HEK293 cells). It is filed as cell-based, human. Particulars: for ΔLog(τ/KA), β-Arrestin1/2 dependent-pErk1/2: normalized to Galanin (reference agonist), in parenthesis, mean ± s.e.m. of three experiments in triplicate; for Log(τ/KA), β-Arrestin1/2 dependent-pErk1/2: western blot, 5 min stimulation, operational model (Eq. 2), mean ± s.e.m. of three experiments in triplicate (table footnote). The source says:
Galr2 is primarily coupled to the Gαq-protein which activates the phospholipase C/protein kinase C pathway for inositol phosphate production. We measured G-protein activation in HEK293 cells transiently expressing Galr2, using the serum response element-luciferase (SRE-Luc) gene reporter assay[10],[37] and for a more specific monitoring of Gαq-protein activity we also measured total inositol phosphate production. […] However, some differences were observed between SRE-Luc activity and total inositol phosphate production in the rank order of potency of the tested ligands. […] Phosphorylation of extracellular signal-regulated protein kinases 1 and 2 (pErk1/2) is either G-protein or β-arrestin dependent. To distinguish Gαq-protein- and β-arrestin1/2-dependent Erk1/2 signaling, we examined ligand-stimulated Erk1/2 phosphorylation in three different HEK293 cell lines, wild type, Gαq/11-knockout, and β-arrestin1/2-knockout cells. All three ligands induced high levels of Erk1/2 phosphorylation dose-dependently in wild-type HEK293 cells.
Fig. 5 Galr2 agonists display different Gαq-protein-dependent signaling and pErk1/2. The ability of increasing concentrations of agonists to induce a SRE-Luc activity and b total inositol phosphate production. c Representative western blot showing ligand-induced phosphorylation of Erk1/2 from wild-type (HEK293 WT), Gαq/11-, and β-arrestin1/2-knockout HEK293 cells expressing Galr2 (original blots are presented in Supplementary Figure 4). pErk1/2 and total Erk levels were determined at 5 min after stimulation of different concentrations of three ligands. Western blot band intensities corresponding to each concentration were quantified using Image studio ^TM Software. […] Data are the mean ± s.e.m. values of two independent experiments
pErk1/2 was measured using western blot assay. HEK293 Gαq/11 and β-arrestin1/2-knockout cells were a kind gift from Professor Asuka Inoue, Tohoku University. The cells were seeded into 6-well plates at a density of 6 × 10^5 cells per well. The next day, they were transfected using 2 μg/well of plasmid containing human Galr2 cDNA and Lipofectamine 2000, according to the manufacturer’s instructions. Before assay, the cells were washed with phosphate-buffered saline and incubated in serum-free DMEM overnight. Dose–response experiments were performed for each ligand at 37 °C. Stimulation of the cells was terminated after 5 min of agonist stimulation by removing the medium, and the addition of 250 μl cold lysis buffer to each well. Immunoblots of phospho-Erk1/2 were obtained using 8 μg of total protein and p44/42 MAPK Erk1/2 antibody (Cell Signaling Technology Inc, catalog no. 4370 S); horseradish peroxidase-conjugated goat anti-rabbit IgG was used as a secondary antibody (Thermo Fisher Scientific). […]

Test [2] has as its system Galr2. The experiment in a line: Quantification of biased agonism between two pathways (operational model). It counts as cell-based, human. The note with it: for ΔΔLog(τ/KA) (bias factor), Gαq-dependent-pErk1/2/β-arrestin1: Gαq-dependent-pErk1/2 vs β-arrestin1; for ΔΔLog(τ/KA) (bias factor), SRE-Luc/clathrin:β-arrestin2: SRE-Luc vs clathrin:β-arrestin2; for ΔΔLog(τ/KA) (bias factor), SRE-Luc/β-arrestin1: SRE-Luc vs β-arrestin1; for ΔΔLog(τ/KA) (bias factor), SRE-Luc/β-arrestin2: SRE-Luc vs β-arrestin2; for ΔΔLog(τ/KA) (bias factor), Total inositol phosphate/clathrin:β-arrestin2: total inositol phosphate vs clathrin:β-arrestin2; for ΔΔLog(τ/KA) (bias factor), Total inositol phosphate/β-arrestin1: total inositol phosphate vs β-arrestin1; for ΔΔLog(τ/KA) (bias factor), Total inositol phosphate/β-arrestin2: total inositol phosphate vs β-arrestin2; for ΔΔLog(τ/KA) (bias factor), β-Arrestin-dependent-pErk1/2/β-arrestin2: β-arrestin-dependent-pErk1/2 vs β-arrestin2. As for the experimental part:
To determine whether differential signaling at Galr2 (Figs. 2 and 5) may be translated into biased agonism, we used the operational model of agonism (Eq. 2) to calculate the logarithm of the transduction coefficient (log(τ/KA)) for each agonist at each pathway (Table 1)[4]. We used Galanin as a reference ligand during all experiments. […] We also calculated bias factors for G-protein-dependent pErk1/2 and β-arrestins.
Quantification of bias between each pathway was performed using Galanin as a reference ligand. All incubations for the different signaling assays were performed in serum-free medium to prevent peptide degradation.
To calculate biased factors and compare agonist profiles, the dose–response data were fit to the following form of the operational model of agonism:[42]2 Y=Basal+Em-basalτ/KA^n[A]^n/[A]^nτ/KA^n+1+[A]/KA^n where Em is the maximal possible response of the system, Basal is the basal level of response, KA represents the equilibrium dissociation constant of the agonist (A), and τ is an index of the signaling efficacy of the agonist that is defined as RT/KE. RT is the total number of receptors, KE is the coupling efficiency of each agonist-occupied receptor, and n is the slope of the transducer function that links occupancy to response. One assumption of the analysis is that the transduction machinery used for a given cellular pathway are the same for all agonists, such that the Em and transducer slope (n) are shared between agonists. The data for all compounds for each pathway were fit globally, to determine values of KA and τ. Biased agonism was quantified as previously described. […] The relative bias can then be calculated for each agonist at the two different signaling pathways by subtracting the Δlog(τ/KA) of one pathway from the other to give a ΔΔlog(τ/KA) value, which is a measure of bias. […] All transduction ratios (log(τ/KA)) parameters were estimated as logarithms. All results were expressed as mean ± s.e.m. values. We performed a Brown–Forsythe test (Graph Pad Prism 7.0) to assure ourselves of equal variances between the compared parameters.

[3] abbreviates: reference agonist Galanin, mean ± s.e.m. of three experiments in triplicate.

Here are results for two molecules from paper PMC6123711, “Conformational signatures in β-arrestin2 reveal natural biased agonism at a G-protein-coupled receptor” (Communications Biology, 2018).

Marks after values point to notes of the source that are not given here.

For the molecule Galanin [reference compound], in the test with Galr2 [1], the “ΔLog(τ/KA), β-Arrestin1/2 dependent-pErk1/2” value was determined as 0.00 ± 0.40 and the “Log(τ/KA), β-Arrestin1/2 dependent-pErk1/2” value is 6.42 ± 0.41. For the same molecule, in the test with Galr2 [2] (G-protein and β-arrestin1/2), the “overall signaling at Galr2” value is “robust signaling toward G-protein and β-arrestin1/2”. For the same molecule, in the test with Galr2 [2] (setting [3]), the “ΔΔLog(τ/KA) (bias factor), Gαq-dependent-pErk1/2/β-arrestin1” value came out at 0.00 ± 0.22; the “ΔΔLog(τ/KA) (bias factor), SRE-Luc/clathrin:β-arrestin2” value came out at 0.00 ± 0.17; the “ΔΔLog(τ/KA) (bias factor), SRE-Luc/β-arrestin1” value came out at 0.00 ± 0.002; the “ΔΔLog(τ/KA) (bias factor), SRE-Luc/β-arrestin2” value amounted to 0.00 ± 0.02. Also, in the test on Galr2 [2] (setting [3]), the “ΔΔLog(τ/KA) (bias factor), Total inositol phosphate/clathrin:β-arrestin2” value is recorded as 0.00 ± 0.19; the “ΔΔLog(τ/KA) (bias factor), Total inositol phosphate/β-arrestin1” value is 0.00 ± 0.03; the “ΔΔLog(τ/KA) (bias factor), Total inositol phosphate/β-arrestin2” value is 0.00 ± 0.05; the “ΔΔLog(τ/KA) (bias factor), β-Arrestin-dependent-pErk1/2/β-arrestin2” value is listed as 0.00 ± 0.38. The “ΔΔLog(τ/KA) (bias factor), Gαq-dependent-pErk1/2/β-arrestin2” value in the test on Galr2 [2] (Gαq-dependent-pErk1/2 vs β-arrestin2, reference agonist Galanin, mean ± s.e.m. of three experiments in triplicate) is on record as 0.00 ± 0.04.

B1: Spexin (peptide, UniProt Q9BT56 27-116, looked up)
Spexin: APQRLLERRNWTPQAMLYLKGAQGRRFISDQSRRKDLSDRPLPERRSPNPQLLTIPEAATILLASLQKSPEDEEKNFDQTRFLEDSLLNW
modifications: Spexin
notes: endogenous peptide ligand of Galr2 and Galr3; synthesized by AnyGen
As for B1, in the test with Galr2 [1], the “ΔLog(τ/KA), β-Arrestin1/2 dependent-pErk1/2” value was 0.73 ± 0.13 and the “Log(τ/KA), β-Arrestin1/2 dependent-pErk1/2” value came to 7.15 ± 0.14. Besides, the “biased agonism, pErk1/2 vs β-arrestin isoforms” value in the test with Galr2 [2] (Gαq-dependent pErk1/2 vs the two β-arrestin isoforms, relative to Galanin) is given as “biased signaling toward Gαq-dependent pErk1/2 over the two β-arrestin isoforms”. In the test with Galr2 [2] (setting [3]), the “ΔΔLog(τ/KA) (bias factor), Gαq-dependent-pErk1/2/β-arrestin1” value is recorded as 1.10 ± 0.29^b; the “ΔΔLog(τ/KA) (bias factor), SRE-Luc/clathrin:β-arrestin2” value is on record as 1.88 ± 0.07^b; the “ΔΔLog(τ/KA) (bias factor), SRE-Luc/β-arrestin1” value was 0.63 ± 0.06^b; the “ΔΔLog(τ/KA) (bias factor), SRE-Luc/β-arrestin2” value is on record as 0.77 ± 0.02^b. Moreover, in the test with Galr2 [2] (setting [3]), the “ΔΔLog(τ/KA) (bias factor), Total inositol phosphate/clathrin:β-arrestin2” value is 1.84 ± 0.12^b; the “ΔΔLog(τ/KA) (bias factor), Total inositol phosphate/β-arrestin1” value was 0.60 ± 0.09^b; the “ΔΔLog(τ/KA) (bias factor), Total inositol phosphate/β-arrestin2” value is reported as 0.73 ± 0.09^b; the “ΔΔLog(τ/KA) (bias factor), β-Arrestin-dependent-pErk1/2/β-arrestin2” value was 1.40 ± 0.16^a. Further, the “biased agonism, β-arrestin-dependent pErk1/2 vs β-arrestin2 recruitment” value in the test on Galr2 [2] (relative to Galanin) was “biased agonism was also detected toward β-arrestin-dependent pErk1/2 over β-arrestin2 recruitment”. Further, in the test on Galr2 [2] (relative to Galanin, Gαq-protein-dependent signaling vs β-arrestins and β-arrestin2–clathrin), the biased agonism entry is “biased agonism toward Gαq-protein-dependent signaling over β-arrestins and β-arrestin2–clathrin interactions”.
